In the supplement of paper PMC10126150:
± gives the standard deviation of the averaged measurements.

Test system: ATP
Experiment: switch fluorescence ratio, 500 uM ATP over buffer (Cy3 cluster intensity, sum of 5 cycles each) (fold (ratio)); higher = stronger signal-on switching upon ATP binding; sequences stand for … in TCGTCGGCAGCGTCAGATGTGTATAAGAGACAGTTTTTTTTTTTTTTTTTTTTTTTTT…TC
Conditions: aptamer strand: ATP DNA aptamer (quencher-CACCTGGGGGAGTATTGCGGAGGAAGG + anchor), 100 nM annealed; ATP concentration: 500 uM
Method in brief: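 The quencher-labelled ATP aptamer, at 100 nM, was annealed to Cy3-labelled switching-strand clusters on a modified Illumina MiSeq flow-cell. The clusters were imaged in selection buffer, then after 15 min with 500 uM ATP at 22 °C, and this buffer/ATP cycle ran five times with NaOH stripping and re-annealing between runs. Per-cluster fluorescence ratios, summed target-cycle over summed buffer-cycle Cy3 intensity, were averaged per switch-domain sequence. Clusters outside 100-1000 RFU were excluded.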
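Also: ATP exposure 15 min at 22 °C before imaging.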

Sequence	switch fluorescence ratio
AGGCGTTCTG	0.991 ± 0.051
AGGCTAACGA	1.015 ± 0.0049
AGGCTAGGGG	1.01 ± 0.042
AGGCTATTTC	0.994 ± 0.019
AGGCTCATAG	0.96982 ± 0.00072
AGGCTCATTG	1.01 ± 0.033
AGGCTGCAG	0.961 ± 0.037
AGGCTGCGTT	1.02 ± 0.038
AGGCTGGGGT	1.02 ± 0.031
AGGCTTAGAC	1.04 ± 0.032
AGGCTTGGTG	0.988 ± 0.012
AGGCTTGTGT	0.99 ± 0.077
AGGCTTTTTT	0.966 ± 0.065
AGGGAAACGG	0.96 ± 0.018
AGGGAAAGTC	0.9854 ± 0.0058
AGGGAAATGG	0.979 ± 0.034
AGGGAACGAC	1.03 ± 0.05
AGGGAAGAGA	1 ± 0.021
AGGGAATCGG	0.976 ± 0.03
AGGGAATGAT	1.01 ± 0.015
AGGGACGGGG	0.991 ± 0.047
AGGGAGAGTT	1.02 ± 0.017
AGGGAGCAGT	1.018 ± 0.01
AGGGAGGACT	1.022 ± 0.009
AGGGAGGATC	1.02 ± 0.017

Sequence	switch fluorescence ratio
AGGGAGGGAA	1.01 ± 0.022
AGGGAGGGTA	0.9889 ± 0.0098
AGGGAGGTCG	0.973 ± 0.035
AGGGAGTCTG	1.018 ± 0.0035
AGGGATCAGC	1 ± 0.008
AGGGATGCGG	0.99607 ± 0.00094
AGGGATGGGA	1.01 ± 0.019
AGGGATGTCC	1.01 ± 0.044
AGGGATGTTT	0.999 ± 0.026
AGGGCAGGGC	0.917 ± 0.069
AGGGCAGTGG	0.9796 ± 0.0025
AGGGCATAGG	0.9652 ± 0.0066
AGGGCCAGGT	1.11 ± 0.023
AGGGCCAGTC	0.998 ± 0.074
AGGGCCGTTG	0.996 ± 0.035
AGGGCGAAGA	0.96 ± 0.022
AGGGCGCGTG	0.995 ± 0.05
AGGGCGGATT	1.01 ± 0.031
AGGGCGGGAT	0.965 ± 0.049
AGGGCTGAGC	0.996 ± 0.052
AGGGCTTTAC	1.1314 ± 8.1e-05
AGGGGAAATG	0.9645 ± 0.0024
AGGGGAGAGG	0.992 ± 0.01
AGGGGAGGAT	1.1 ± 0.15
AGGGGAGGGG	1.02 ± 0.042

Sequence	switch fluorescence ratio
AGGGGAGTCG	0.987 ± 0.021
AGGGGAGTTC	1.04 ± 0.035
AGGGGATATT	0.996 ± 0.01
AGGGGATCAA	0.985 ± 0.015
AGGGGCAGTT	0.985 ± 0.02
AGGGGCCAGT	0.98 ± 0.019
AGGGGCGGTG	0.994 ± 0.017
AGGGGCGTGA	0.99 ± 0.011
AGGGGCTGCG	0.938 ± 0.029
AGGGGGAAAA	1.47 ± 0.69
AGGGGGAAAT	0.987 ± 0.035
AGGGGGAACG	1.01 ± 0.016
AGGGGGAAGT	0.99 ± 0.045
AGGGGGAGGA	1.01 ± 0.04
AGGGGGAGTC	1.02 ± 0.053
AGGGGGATGT	0.974 ± 0.05
AGGGGGCATC	1.01 ± 0.07
AGGGGGCGCC	1.02 ± 0.016
AGGGGGGAAC	1.01 ± 0.024
AGGGGGGAAG	0.989 ± 0.023
AGGGGGGATC	1.01 ± 0.046
AGGGGGGCT	1.01 ± 0.031
AGGGGGGGAC	1 ± 0.021
AGGGGGGGGT	1 ± 0.05
AGGGGGGTCG	0.992 ± 0.072

Sequence	switch fluorescence ratio
AGGGGGGTTT	1 ± 0.024
AGGGGGTAAC	1 ± 0.051
AGGGGGTACT	1 ± 0.011
AGGGGGTGCG	0.988 ± 0.029
AGGGGGTGGG	0.989 ± 0.02
AGGGGGTGGT	0.987 ± 0.043
AGGGGGTTAG	0.989 ± 0.03
AGGGGTACTC	0.9982 ± 0.0076
AGGGGTAGGC	0.9893 ± 0.0036
AGGGGTCCCG	0.93546 ± 0.00063
AGGGGTCGCG	0.981 ± 0.0054
AGGGGTCTTA	0.978 ± 0.02
AGGGGTGCTA	0.9996 ± 0.0095
AGGGGTGGTA	0.981 ± 0.043
AGGGGTGTAG	1.03 ± 0.057
AGGGGTGTTG	0.991 ± 0.032
AGGGGTTAAA	1.01 ± 0.022
AGGGGTTATC	1.02 ± 0.026
AGGGGTTCTG	1.01 ± 0.046
AGGGGTTGAG	0.998 ± 0.036
AGGGGTTTGG	0.983 ± 0.024
AGGGTAAACG	0.986 ± 0.024
AGGGTACGGG	1.063 ± 0.0037
AGGGTATTTA	1.007 ± 0.01
AGGGTATTTG	0.987 ± 0.011

Sequence	switch fluorescence ratio
AGGGTCATCT	1.012 ± 0.002
AGGGTCGACT	1.033 ± 0.0095
AGGGTCGGTA	1.02 ± 0.033
AGGGTCTCAT	1.02 ± 0.022
AGGGTCTTGA	1.007 ± 0.0017
AGGGTGAATG	1 ± 0.0097
AGGGTGATTA	1.01 ± 0.018
AGGGTGCGGA	0.989 ± 0.036
AGGGTGGGCT	0.996 ± 0.012
AGGGTGTGCA	0.999 ± 0.049
AGGGTGTGTC	1.007 ± 0.0098
AGGGTTAGGG	1.02 ± 0.03
AGGGTTAGTT	1.01 ± 0.013
AGGGTTCGAC	1.01 ± 0.039
AGGGTTGGCT	1.02 ± 0.052
AGGGTTGGTA	1.01 ± 0.011
AGGGTTGTGA	1 ± 0.026
AGGGTTTTCG	0.972 ± 0.022
AGGTAAAGGC	1.02 ± 0.022
AGGTAAAGTA	0.915 ± 0.025
AGGTAACGGG	0.987 ± 0.0099
AGGTAAGAGG	0.96 ± 0.026
AGGTAAGTGC	1.025 ± 0.0017
AGGTAATGGT	0.998 ± 0.039
AGGTAATTAG	1 ± 0.012

Sequence	switch fluorescence ratio
AGGTACTCCG	1.09 ± 0.015
AGGTAGAGGA	1.01 ± 0.035
AGGTAGTTTG	0.9979 ± 0.0018
AGGTAGTTTT	0.982 ± 0.011
AGGTATAGGA	1.01 ± 0.013
AGGTCAAGAA	1.07 ± 0.079
AGGTCAGCCT	1.03 ± 0.029
AGGTCAGCTG	0.99 ± 0.018
AGGTCGGCAA	1.02 ± 0.014
AGGTCGGCTT	1.006 ± 0.0024
AGGTCGGGCG	0.982 ± 0.026
AGGTCTAGAC	1.04 ± 0.0095
AGGTCTAGAG	0.976 ± 0.024
AGGTCTCTTT	0.982 ± 0.021
AGGTCTGGCA	0.995 ± 0.016
AGGTGACAGT	0.982 ± 0.021
AGGTGACGAG	1.02 ± 0.014
AGGTGAGGGC	1.02 ± 0.015
AGGTGATGGT	0.997 ± 0.023
AGGTGCATAA	1.05 ± 0.017
AGGTGCTACG	1.03 ± 0.012
AGGTGCTCAT	1.02 ± 0.036
AGGTGCTTGA	0.975 ± 0.078
AGGTGGGATT	1.02 ± 0.033
AGGTGGGCGG	0.969 ± 0.022

Sequence	switch fluorescence ratio
AGGTGGGGTT	0.996 ± 0.051
AGGTGGGTGG	1.02 ± 0.04
AGGTGGTCGG	0.966 ± 0.038
AGGTGGTTTT	1.014 ± 0.0041
AGGTGTAATT	0.987 ± 0.031
AGGTGTATGT	1.01 ± 0.061
AGGTGTCGTC	0.975 ± 0.018
AGGTGTGTAG	0.99 ± 0.032
AGGTGTTAGC	0.955 ± 0.046
AGGTTAAGGA	1.04 ± 0.087
AGGTTAATAT	1 ± 0.043
AGGTTACCGG	0.987 ± 0.019
AGGTTAGAGG	0.993 ± 0.016
AGGTTATGCA	1.01 ± 0.032
AGGTTATGGG	1.04 ± 0.082
AGGTTATTA	0.9856 ± 0.0031
AGGTTATTAT	0.999 ± 0.029
AGGTTCAGCA	1 ± 0.013
AGGTTGAAG	0.976 ± 0.034
AGGTTGAAGC	0.993 ± 0.017
AGGTTGAGGG	0.984 ± 0.025
AGGTTGCGAT	1.01 ± 0.013
AGGTTGCTCT	0.9947 ± 0.0098
AGGTTGGGTG	1.05 ± 0.013
AGGTTGGGTT	0.997 ± 0.023

Sequence	switch fluorescence ratio
AGGTTGTAAT	1 ± 0.016
AGGTTGTCAA	0.969 ± 0.028
AGGTTTAGTA	1.02 ± 0.015
AGGTTTGGCT	1.01 ± 0.028
AGGTTTGGTT	1.01 ± 0.04
AGGTTTGTAG	0.983 ± 0.013
AGGTTTTTAG	0.944 ± 0.024
AGGTTTTTCA	0.983 ± 0.017
AGGTTTTTCT	0.987 ± 0.024
AGTAAAAAGG	0.993 ± 0.021
AGTAAAAAGT	1.02 ± 0.026
AGTAAAATGG	1.01 ± 0.038
AGTAAACCAT	1.04 ± 0.03
AGTAAAGTGC	1.03 ± 0.045
AGTAAAGTTA	1.008 ± 0.008
AGTAAATATA	0.993 ± 0.022
AGTAAATCCT	1.16 ± 0.0084
AGTAACCGGG	1.02 ± 0.035
AGTAAGACAG	0.986 ± 0.08
AGTAAGGTTT	0.985 ± 0.04
AGTAAGTGGG	0.956 ± 0.048
AGTAATGGG	0.97 ± 0.054
AGTAATGTAG	1 ± 0.037
AGTAATGTTT	0.994 ± 0.02
AGTAATTTGC	1.02 ± 0.012
